Measured values as given in the supplement of paper PMC10065799, “High-throughput profiling of sequence recognition by tyrosine kinases and SH2 domains using bacterial peptide display” (eLife, 2023).

What was measured:
[1] = target: FGFR3 (UniProt P22607); test: phosphorylation enrichment, bacterial display (enrichment ratio); higher = better substrate or ligand; peptides without Tyr show the background
[2] = target: Fyn (UniProt P06241); test: as above
[3] = system: c-Src; test: as above
[4] = system: AncSZ; test: as above
[5] = target: Hck (UniProt P08631); test: as above
[6] = target: Fes (UniProt P07332); test: as above
[7] = target: FGFR1 (UniProt P11362); test: as above
[8] = target: EPHB2 (UniProt P29323); test: as above
[9] = system: c-Abl (mouse); test: as above
[10] = system: Fer (mouse); test: as above
[11] = target: Jak2 (UniProt O60674); test: as above
[12] = target: EPHB1 (UniProt P54762); test: as above
[13] = target: MERTK (UniProt Q12866); test: as above
[14] = target: SHP2-C SH2; test: SH2 binding enrichment of the phosphorylated peptide, bacterial display (enrichment ratio); higher = better substrate or ligand; peptides without Tyr show the background
[15] = target: c-Src SH2; test: as above
[16] = target: Grb2 SH2 (UniProt P62993); test: as above
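Wherever SH2 binding enrichment of the phosphorylated peptide, bacterial display is given: peptide library displayed on the E. coli surface as eCPX fusions, selected cells deep-sequenced, score is each peptide's frequency after selection divided by its frequency in the input.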
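Wherever phosphorylation enrichment, bacterial display is given: 11-residue human phosphosite peptides and single-mutation variants displayed on the E. coli surface, counted by deep sequencing, each peptide's frequency after selection divided by its frequency in the unselected input library; frequency after pTyr selection over input frequency; kinase dosed for 20-30% of maximal phosphorylation in three min.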

EPHB1, sequence (P54762 whole entry, looked up): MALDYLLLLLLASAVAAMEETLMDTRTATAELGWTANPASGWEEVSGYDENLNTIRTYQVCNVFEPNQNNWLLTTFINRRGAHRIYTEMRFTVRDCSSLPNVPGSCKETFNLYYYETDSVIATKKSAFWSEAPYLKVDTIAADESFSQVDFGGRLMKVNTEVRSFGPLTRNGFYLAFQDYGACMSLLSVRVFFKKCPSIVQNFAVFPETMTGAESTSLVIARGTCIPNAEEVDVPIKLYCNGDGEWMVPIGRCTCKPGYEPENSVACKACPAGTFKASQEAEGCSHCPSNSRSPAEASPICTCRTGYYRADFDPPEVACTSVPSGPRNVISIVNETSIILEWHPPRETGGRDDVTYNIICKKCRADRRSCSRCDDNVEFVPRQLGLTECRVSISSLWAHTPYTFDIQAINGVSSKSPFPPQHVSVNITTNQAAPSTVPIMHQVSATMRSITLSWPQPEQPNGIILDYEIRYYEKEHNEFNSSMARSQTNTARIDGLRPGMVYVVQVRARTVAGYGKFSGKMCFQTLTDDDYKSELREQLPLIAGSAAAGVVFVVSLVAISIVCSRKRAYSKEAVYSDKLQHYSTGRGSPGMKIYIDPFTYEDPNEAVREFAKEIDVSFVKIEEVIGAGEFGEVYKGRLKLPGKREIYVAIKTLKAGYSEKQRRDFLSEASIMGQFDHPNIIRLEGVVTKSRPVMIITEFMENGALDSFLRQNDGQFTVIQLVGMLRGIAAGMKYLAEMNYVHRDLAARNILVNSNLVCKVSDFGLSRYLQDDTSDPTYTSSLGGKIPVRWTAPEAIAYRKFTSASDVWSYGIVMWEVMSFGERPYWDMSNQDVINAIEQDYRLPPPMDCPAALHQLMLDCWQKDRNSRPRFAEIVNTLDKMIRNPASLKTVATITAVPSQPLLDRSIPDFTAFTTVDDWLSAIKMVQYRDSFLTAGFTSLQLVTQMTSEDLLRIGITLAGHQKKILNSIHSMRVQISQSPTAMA
EPHB2, sequence (P29323 whole entry, looked up): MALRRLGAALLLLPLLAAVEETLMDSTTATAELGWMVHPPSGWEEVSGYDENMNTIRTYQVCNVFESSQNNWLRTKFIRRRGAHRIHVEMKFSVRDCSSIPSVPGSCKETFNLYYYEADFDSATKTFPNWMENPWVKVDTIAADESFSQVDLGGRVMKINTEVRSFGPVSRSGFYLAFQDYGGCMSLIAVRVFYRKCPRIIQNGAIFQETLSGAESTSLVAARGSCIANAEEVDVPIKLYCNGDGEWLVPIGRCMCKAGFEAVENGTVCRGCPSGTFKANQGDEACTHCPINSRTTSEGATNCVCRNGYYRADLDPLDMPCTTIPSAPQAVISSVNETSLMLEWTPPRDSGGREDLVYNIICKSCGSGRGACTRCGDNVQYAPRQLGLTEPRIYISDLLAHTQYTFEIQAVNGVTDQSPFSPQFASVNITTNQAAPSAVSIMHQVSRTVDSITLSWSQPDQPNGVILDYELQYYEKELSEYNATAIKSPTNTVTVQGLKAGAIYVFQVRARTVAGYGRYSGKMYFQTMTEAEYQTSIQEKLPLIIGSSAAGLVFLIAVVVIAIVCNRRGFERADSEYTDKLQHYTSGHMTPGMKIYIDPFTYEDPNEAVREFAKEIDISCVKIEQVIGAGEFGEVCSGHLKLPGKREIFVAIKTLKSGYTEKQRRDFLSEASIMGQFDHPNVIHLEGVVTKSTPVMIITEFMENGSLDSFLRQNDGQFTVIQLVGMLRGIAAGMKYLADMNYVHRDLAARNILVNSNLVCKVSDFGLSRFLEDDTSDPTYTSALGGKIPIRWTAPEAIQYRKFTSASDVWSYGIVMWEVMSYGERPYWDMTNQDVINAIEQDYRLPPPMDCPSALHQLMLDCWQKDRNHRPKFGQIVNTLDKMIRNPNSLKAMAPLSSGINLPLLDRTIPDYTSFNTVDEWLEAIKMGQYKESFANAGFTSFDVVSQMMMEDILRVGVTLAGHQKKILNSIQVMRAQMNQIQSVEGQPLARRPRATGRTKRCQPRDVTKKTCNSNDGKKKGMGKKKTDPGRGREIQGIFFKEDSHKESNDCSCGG
Grb2 SH2, sequence (P62993 whole entry, looked up, the tested form may be a part): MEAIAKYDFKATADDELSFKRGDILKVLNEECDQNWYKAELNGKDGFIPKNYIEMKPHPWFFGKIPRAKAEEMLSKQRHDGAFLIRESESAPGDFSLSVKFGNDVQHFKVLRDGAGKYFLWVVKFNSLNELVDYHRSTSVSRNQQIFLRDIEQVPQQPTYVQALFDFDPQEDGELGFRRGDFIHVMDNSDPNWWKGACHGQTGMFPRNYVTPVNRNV
Fyn, sequence (P06241 whole entry, looked up): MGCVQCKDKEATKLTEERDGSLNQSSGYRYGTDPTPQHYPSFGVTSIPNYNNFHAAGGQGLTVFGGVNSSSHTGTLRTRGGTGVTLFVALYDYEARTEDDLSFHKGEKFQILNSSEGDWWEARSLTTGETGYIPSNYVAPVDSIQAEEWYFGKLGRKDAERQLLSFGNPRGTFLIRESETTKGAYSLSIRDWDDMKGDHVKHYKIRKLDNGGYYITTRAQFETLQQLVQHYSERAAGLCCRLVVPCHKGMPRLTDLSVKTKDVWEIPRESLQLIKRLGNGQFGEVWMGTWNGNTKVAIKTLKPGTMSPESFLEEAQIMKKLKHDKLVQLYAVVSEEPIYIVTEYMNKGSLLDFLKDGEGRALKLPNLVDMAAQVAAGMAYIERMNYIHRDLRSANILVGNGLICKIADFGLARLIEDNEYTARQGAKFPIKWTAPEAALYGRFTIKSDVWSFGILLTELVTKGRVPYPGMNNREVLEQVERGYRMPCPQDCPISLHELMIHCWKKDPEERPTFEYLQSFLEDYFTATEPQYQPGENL
FGFR3, sequence (P22607 whole entry, looked up): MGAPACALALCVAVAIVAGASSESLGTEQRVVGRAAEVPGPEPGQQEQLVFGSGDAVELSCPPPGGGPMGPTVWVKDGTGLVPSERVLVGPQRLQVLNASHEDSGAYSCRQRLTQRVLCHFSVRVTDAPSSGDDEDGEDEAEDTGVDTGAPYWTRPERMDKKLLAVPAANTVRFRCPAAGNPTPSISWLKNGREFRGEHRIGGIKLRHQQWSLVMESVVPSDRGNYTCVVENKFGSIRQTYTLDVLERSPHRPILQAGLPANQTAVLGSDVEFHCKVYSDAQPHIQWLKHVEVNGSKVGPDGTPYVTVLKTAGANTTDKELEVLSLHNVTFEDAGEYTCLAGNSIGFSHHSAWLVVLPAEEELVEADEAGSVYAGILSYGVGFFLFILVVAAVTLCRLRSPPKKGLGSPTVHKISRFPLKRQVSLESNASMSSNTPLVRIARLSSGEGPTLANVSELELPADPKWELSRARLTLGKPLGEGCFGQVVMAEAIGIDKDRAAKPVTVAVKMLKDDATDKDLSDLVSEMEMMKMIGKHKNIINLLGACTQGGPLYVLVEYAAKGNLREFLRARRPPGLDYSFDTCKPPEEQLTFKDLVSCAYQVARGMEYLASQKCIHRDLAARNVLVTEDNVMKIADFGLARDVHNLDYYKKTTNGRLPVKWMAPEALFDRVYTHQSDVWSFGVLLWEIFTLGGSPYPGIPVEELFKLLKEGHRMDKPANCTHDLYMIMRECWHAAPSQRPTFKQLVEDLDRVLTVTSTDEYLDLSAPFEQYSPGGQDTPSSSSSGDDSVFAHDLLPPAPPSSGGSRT
Jak2, sequence (O60674 whole entry, looked up): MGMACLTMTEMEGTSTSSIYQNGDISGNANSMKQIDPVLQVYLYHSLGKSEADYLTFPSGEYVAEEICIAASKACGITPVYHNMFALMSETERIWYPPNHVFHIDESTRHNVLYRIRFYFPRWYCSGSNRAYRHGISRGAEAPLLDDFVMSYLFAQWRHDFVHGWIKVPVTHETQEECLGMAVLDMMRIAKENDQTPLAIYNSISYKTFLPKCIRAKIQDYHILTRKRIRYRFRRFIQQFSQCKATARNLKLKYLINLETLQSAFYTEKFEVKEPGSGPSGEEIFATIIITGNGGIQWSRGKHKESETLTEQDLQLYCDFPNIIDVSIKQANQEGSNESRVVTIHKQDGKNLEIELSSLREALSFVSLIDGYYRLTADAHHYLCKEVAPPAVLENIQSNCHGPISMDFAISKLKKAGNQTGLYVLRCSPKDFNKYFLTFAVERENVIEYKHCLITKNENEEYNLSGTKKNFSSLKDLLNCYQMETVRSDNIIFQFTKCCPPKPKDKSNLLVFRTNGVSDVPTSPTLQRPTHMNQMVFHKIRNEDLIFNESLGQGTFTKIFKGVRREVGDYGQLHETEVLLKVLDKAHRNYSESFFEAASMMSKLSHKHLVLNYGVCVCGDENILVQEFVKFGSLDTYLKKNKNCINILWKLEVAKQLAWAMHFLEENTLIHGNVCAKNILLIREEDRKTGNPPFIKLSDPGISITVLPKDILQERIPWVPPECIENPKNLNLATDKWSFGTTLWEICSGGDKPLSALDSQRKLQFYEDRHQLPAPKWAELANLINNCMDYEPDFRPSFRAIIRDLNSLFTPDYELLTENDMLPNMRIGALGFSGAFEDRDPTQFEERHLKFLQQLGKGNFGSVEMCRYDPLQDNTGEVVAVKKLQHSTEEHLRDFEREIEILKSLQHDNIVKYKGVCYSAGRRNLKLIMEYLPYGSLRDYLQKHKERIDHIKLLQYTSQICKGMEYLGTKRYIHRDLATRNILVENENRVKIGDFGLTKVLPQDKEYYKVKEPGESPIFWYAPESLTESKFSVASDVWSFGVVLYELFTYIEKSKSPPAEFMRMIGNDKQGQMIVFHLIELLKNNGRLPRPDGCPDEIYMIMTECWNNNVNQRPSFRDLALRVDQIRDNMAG

| Sequence | phosphorylation enrichment [1] | phosphorylation enrichment [2] | phosphorylation enrichment [3] | phosphorylation enrichment [4] | phosphorylation enrichment [5] | phosphorylation enrichment [6] | phosphorylation enrichment [7] | phosphorylation enrichment [8] | phosphorylation enrichment [9] | phosphorylation enrichment [10] | phosphorylation enrichment [11] | phosphorylation enrichment [12] | phosphorylation enrichment [13] | SH2 binding enrichment [14] | SH2 binding enrichment [15] | SH2 binding enrichment [16] |
| --- | --- | --- | --- | --- | --- | --- | --- | --- | --- | --- | --- | --- | --- | --- | --- | --- |
| GVPLGYPIKAP [ELN_Y206] | 0.399 | 0.384 | 0.427 | 0.563 | 0.388 | 0.573 | 0.462 | 0.388 | 0.485 | 0.45 | 0.534 | 0.323 | 0.419 | 0.666 | 0.573 | 0.716 |
| SKNYTYIWWLN [PSG4_Y271] | 0.77 | 0.343 | 0.273 | 1.09 | 0.4 | 1.14 | 0.589 | 0.58 | 0.676 | 0.638 | 1.09 | 0.582 | 0.332 | 0.657 | 0.444 | 0.921 |
| RRGTRYMFSRP [RPL21_Y13] | 0.554 | 0.829 | 0.922 | 0.952 | 0.853 | 0.594 | 0.859 | 0.768 | 0.971 | 0.887 | 0.625 | 0.782 | 0.837 | 0.746 | 0.483 | 0.599 |
| LDLPGYCPLRE [CCDC116_Y291] | 1.36 | 0.96 | 0.773 | 1.55 | 1.1 | 1.97 | 0.916 | 0.668 | 1.28 | 1.09 | 1.64 | 1.09 | 0.767 | 0.736 | 0.611 | 0.754 |
| GSRGKCSSGFR [ATM_Y332_Y332C] | 0.423 | 0.395 | 0.387 | 0.471 | 0.464 | 0.558 | 0.403 | 0.379 | 0.709 | 0.433 | 0.532 | 0.41 | 0.411 | 0.713 | 0.915 | 1.06 |
| SGPRCYTIAAL [TTR_Y125_R124C] | 0.462 | 0.405 | 0.399 | 0.617 | 0.354 | 0.669 | 0.392 | 0.403 | 0.46 | 0.554 | 0.535 | 0.41 | 0.344 | 0.766 | 0.586 | 0.808 |
| CTTIHHNFMCN [TP53_Y234_Y234H_YF] | 0.641 | 0.453 | 0.362 | 0.713 | 0.436 | 0.844 | 0.525 | 0.51 | 0.478 | 0.483 | 0.606 | 0.482 | 0.377 | 0.933 | 1.36 | 1.36 |
| RKLVDYNSARH [BIN1_Y150_D151N] | 0.326 | 0.389 | 0.378 | 0.559 | 0.383 | 0.568 | 0.376 | 0.338 | 0.548 | 0.419 | 0.425 | 0.311 | 0.393 | 0.814 | 0.686 | 0.972 |
| WRRLIYRCQVG [NR2E3_Y81_R76W] | 0.515 | 0.452 | 0.494 | 0.906 | 0.424 | 0.784 | 0.487 | 0.486 | 0.65 | 0.489 | 0.837 | 0.389 | 0.484 | 0.561 | 0.366 | 0.939 |
| AKAEIYEMRPL [COX10_Y97] | 0.672 | 11.4 | 9.82 | 1.08 | 12.1 | 0.912 | 0.552 | 6.54 | 0.801 | 6.76 | 0.77 | 11 | 8.29 | 0.623 | 0.573 | 0.895 |
| AASHRYDLGGL [QPRT_Y162] | 0.4 | 0.352 | 0.391 | 0.491 | 0.35 | 0.56 | 0.416 | 0.375 | 0.432 | 0.336 | 0.521 | 0.356 | 0.327 | 0.607 | 0.521 | 0.828 |
| FCVDCYKNFVA [FHL1_Y213_YF] | 0.617 | 0.562 | 0.461 | 0.862 | 0.529 | 0.957 | 0.57 | 0.751 | 0.776 | 0.523 | 0.898 | 0.533 | 0.487 | 1.02 | 0.946 | 1.2 |
| MPLDQYSPSFP [FGFR1_Y776] | 0.79 | 0.496 | 0.552 | 0.857 | 0.6 | 0.941 | 0.631 | 0.617 | 0.706 | 0.654 | 0.917 | 0.399 | 0.595 | 0.803 | 0.518 | 1.08 |
| LLSISYVGCSL [ADGRD1_Y571_S567L] | 1.43 | 0.98 | 0.69 | 1.48 | 0.824 | 2.03 | 1.1 | 0.823 | 1.45 | 1.01 | 1.77 | 0.888 | 0.761 | 0.571 | 0.54 | 0.96 |
| FSTPPYLLEAA [BRIP1_Y921_S919P_YF] | 0.707 | 0.619 | 0.669 | 0.95 | 0.434 | 1 | 0.63 | 0.601 | 0.76 | 0.579 | 0.909 | 0.521 | 0.497 | 0.655 | 0.607 | 0.952 |
| SMAKYYASEIA [ACADSB_Y373] | 0.478 | 0.404 | 0.452 | 0.601 | 0.473 | 0.701 | 0.426 | 0.433 | 0.682 | 0.495 | 0.599 | 0.459 | 0.46 | 0.634 | 0.48 | 0.756 |
| PLTKVYVVEGS [ZMPSTE24_Y253] | 0.73 | 0.494 | 0.554 | 0.814 | 0.441 | 0.952 | 0.494 | 0.538 | 0.617 | 0.567 | 0.526 | 0.487 | 0.418 | 0.743 | 0.529 | 0.841 |
